Measurements reported in patent US11851680B2, “Genetically-modified immune cells comprising a microRNA-adapted shRNA (shRNAmiR)” (Precision Biosciences, Inc., priority 2019, dated 2023).

Legend:
[1] = tested on: TGFBR2; experiment: TGFBR2 surface expression (knockdown or knockout) on T cells by flow cytometry; format: cell-based, human; details: for TGFBR2 knockout frequency, percent of cells in the culture: 6 days after electroporation of nuclease RNA, vs mock nucleofected
Experimental: Nucleofection was carried out in the presence of 2 μg/1×10^6 cells of linearized DNA encoding the CAR and one of the candidate TGFBR2 shRNAmiRs.
Cells were analyzed for TGFBR2 expression at d7, 10, and 14 post-nucleofection using the anti-TGFBR2 antibody MM0056-4F14 (Abcam), and an anti-mouse kappa light chain secondary antibody conjugated to PE (BioLegend). CAR+ cells were identified using anti-FMC63-Alx647, produced in house. The mean fluorescence intensity (MFI) of TGFBR2 signal on the CAR+ was compared to that on the CAR− cells and a percent knockdown was calculated. The frequency of CAR+ events was consistent across the different constructs, ranging from 4.9% to 6.7% (FIG. 12).
Electroporated cells were cultured for 6 days in complete X-VIVO15 medium supplemented with 30 ng/ml IL-2 prior to an analysis of editing efficiency. This was achieved by staining cells with an anti-TGFβRII antibody (Abcam clone MM0056-4F14) followed by anti-mouse IgG κ light chain conjugated to PE (BioLegend clone RMK45). Data were acquired on a Beckman-Coulter CytoFLEX-S or LX.
Mock nucleofected T cells were stained with the anti-TGFβRII antibody and the secondary antibody or the secondary antibody alone to serve as positive and negative controls, respectively, for surface detection of TGFβRII.
A further study was conducted in which the activity of CAR T cells was assessed following various alterations to the TGFβ pathway. […] In some variants, a sequence encoding a shRNAmiR was also introduced at the TRC 1-2 site in the same cassette as the CAR (positioned between the CAR stop codon and a polyA sequence). In one variant, the shRNAmiR was a TGFBR2-specific shRNAmiR (construct 72154) while in another variant a shRNAmiR that is irrelevant to TGFβ function (targeting B2M—construct 72155) was introduced. A third variant of CAR T cells was produced using construct 72155, but they were edited at the TGFBR2 locus using the TGF1-2L296 nuclease described above in order to knockout the TGFBR2 gene. CAR T cells in the TGFBR2 KO group contained 60% KO.

[2] = tested on: SMAD2/3; experiment: Phosphorylated SMAD2/3 after TGFβ1 stimulation by flow cytometry; format: cell-based, human; details: BCMA CAR T cells, TGFβ1 500 ng/ml
Text: T cells electroporated with TRC1-2L.1592 were immediately transduced with AAV72112 (encoding the anti-CD19 FMC63 CAR described in Example 1 and a TGFBR2-specific shRNAmiR inserted after the CAR stop codon and before a polyA sequence) or AAV7206 (encoding a control FMC63 CAR with no RNAi). Following six days of culture, CD3-CAR+ cells were purified by FACS using methods described above. In addition, TGFβRII-cells from TGF1-2L.296-edited cultures were sorted in this manner. Sorted cells were rested in serum free medium overnight before being stimulated with 500 ng/ml of recombinant human TGFβ1, the ligand for TGFBR2 (PeproTech). Thirty minutes following TGFβ1 addition, cells were harvested and immediately prepared for staining using Phos-Flow lyse-fix buffer and Phos-Flow Fix-Perm buffer III (BD Biosciences) according to the manufacturer's instructions. Fixed cells were stained with anti-pSMAD2/3-PE (BD Biosciences) and data were acquired on a Beckman-Coulter CytoFLEX-LX. […]
BCMA CAR T cells having knock out of TGFBR2 were prepared with the TGF 1-2L.296 meganuclease and cells having knock down of TGFBR2 were prepared with the 72112 TGFBR2 shRNAmiR as described above. The respective BCMA CAR T cell groups were treated with TGFβ1 (500 ng/ml) and all cell groups were harvested and analyzed as described above. […]

B1: TGF 1-2L.296: engineered meganuclease targeting the TGFBR2 gene (SEQ ID NO: 65) (protein)
chain: MNTKYNKEFLLYLAGFVDGDGSIYACITPKQRSKFKHSLRLRFTVGQKTQRRWFLDKLVDEIGVGYVLDGGGVSEYRLSEIKPLHNFLTQLQPFLKLKQKQANLVLKIIEQLPSAKESPDKFLEVCTWVDQIAALNDSKTRKTTSETVRAVLDSLPGSVGGLSPSQASSATSSASSSPGSGISEALRAGAGSGTGYNKEFLLYLAGFVDGDGSIYACIEPDQSRKFKHTLRLYFEVGQKTQRRWFLDKLVDEIGVGYVYDRGSVSNYRLSEIKPLHNFLTQLQPFLKLKQKQANLVLKIIEQLPSAKESPDKFLEVCTWVDQIAALNDSKTRKTTSETVRAVLDSLSEKKKSSP
**Q.** With B1 as the molecule, how does the “TGFBR2 knockout frequency, percent of cells in the culture” value [1] read?
**A.** 69%

**Q.** And the “TGFBR2 KO in CAR T cell group” value ([1]; BCMA CAR T cells, construct 72155 plus nuclease)?
**A.** 60%

**Q.** And the “pSMAD2/3 level after TGFβ1” value [2]?
**A.** decreased pSMAD2/3 to levels comparable to, or lower than, the untreated BCMA CAR T cell control

B2: TGF 1-2x.5: engineered meganuclease targeting the TGFBR2 gene (SEQ ID NO: 64) (protein)
chain: MNTKYNKEFLLYLAGFVDGDGSIYACIEPDQSRKFKHTLRLYFEVGQKTQRRWFLDKLVDEIGVGYVYDRGSVSNYRLSEIKPLHNFLTQLQPFLKLKQKQANLVLKIIEQLPSAKESPDKFLEVCTWVDQIAALNDSKTRKTTSETVRAVLDSLPGSVGGLSPSQASSAASSASSSPGSGISEALRAGAGSGTGYNKEFLLYLAGFVDGDGSIFACITPSQTHKFKHRLFLRFTVGQKTQRRWFLDKLVDEIGVGYVVDSGSVSEYRLSQIKPLHNFLTQLQPFLKLKQKQANLVLKIIEQLPSAKESPDKFLEVCTWVDQIAALNDSKTRKTTSETVRAVLDSLSEKKKSSP
**Q.** For B2, which “TGFBR2 knockout frequency, percent of cells in the culture” value [1] is on record?
**A.** 38.6%
